In article PMC4939959 one finds stoichiometry N data, which are given here for one substance.

The test addresses Prototype foamy virus (PFV) Env glycoprotein, wild type, fully processed (gp18^LP, gp80^SU, gp48^TM), trimeric spike in the viral membrane (Prototype foamy virus (PFV)) (UniProt P14351). The test can be described thus: cryo-electron tomography with subtomogram averaging; Env in situ in the membrane of purified virus particles (wt fixed with 4% paraformaldehyde, iNAB, iFuse), plunge-frozen; single spike, 3-fold symmetry seen in the asymmetric average and then enforced; 3.2, 2.9 and 2.8 nm at FSC = 0.5; step: Env protomers in the trimeric spike.

Consider “Prototype foamy virus (PFV) Env glycoprotein, wild type, fully processed (gp18^LP, gp80^SU, gp48^TM), trimeric spike in the viral membrane (from UniProt P14351 1-126; P14351 1-126; P14351 1-126) (complex)”, for which the stoichiometry N came out at 3.
